The values below are quoted from earlier work in publication PMC3417102.

What is called pKd is −log10 of the Kd, conventionally taken in molar units.

pKd: −log10 of the molar value.

In series [1] the target is tissue-type plasminogen activator (Homo sapiens) (UniProt P00750).
In series [2] the target is plasminogen (Homo sapiens) (UniProt P00747).
Series [3] addresses Glu-plasminogen (Homo sapiens) (UniProt P00747).

Chain of UniProt P00750 (P00750 311-562): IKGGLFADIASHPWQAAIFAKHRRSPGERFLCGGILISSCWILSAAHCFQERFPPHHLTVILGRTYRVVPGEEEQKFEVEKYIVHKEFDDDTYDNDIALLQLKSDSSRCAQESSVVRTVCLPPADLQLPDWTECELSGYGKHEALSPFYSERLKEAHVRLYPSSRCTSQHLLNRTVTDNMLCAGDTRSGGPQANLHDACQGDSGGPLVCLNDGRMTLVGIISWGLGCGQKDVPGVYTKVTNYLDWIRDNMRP

For the substance Annexin A2 (from UniProt P07355), the figures for the pKd in series [1] and in series [2] were 7.52 and 6.94, respectively.
“beta2-glycoprotein I (nicked) (from UniProt P02749)”: the pKd in series [3] was 6.43.
